From patent US6294153A, “Aerosol pharmaceutical formulation for pulmonary and nasal delivery” (Generex Pharmaceuticals, Inc., priority 1999, dated 2001)
Like-named read-outs stand apart in the source and are kept apart here.

What was measured:
[1] = healthy volunteers; 10, 20, 30 units aerosol
From the text: Day-1: 5 puffs of 2 units each (total 10 units)
Day-2: 5 puffs of 4 units each (total 20 units)
Day-1: 5 puffs of 6 units each (total 30 units)

[2] = Method: The vials were then charged with a non-CFC tetrafluoroethane, (134a) propellant with the aid of a Pamasol 2008 semi-automatic gas filling equipment.
The aerodynamic particle size was determined by 8-stage USP Anderson Cascade Impactor-Mark-II (trade mark). The Multistage Cascade Impactor was cleaned with methanol and air-dried at 30° C. Glass fibre filters were placed on the collection plates. Seals were aligned properly and the actuator was attached to the mouthpiece and assembled onto the USP induction port and jet stages. A vacuum pump was connected and air flow rate is set to 28.3 liter/min. The vial was primed by shaking for 10 seconds and actuating twice to waste. […] […] The filters were carefully removed and placed in scintillation vials and sonicated for 15 minutes.

[3] = stage 3, U400, 4 units/actuation
[4] = stage 4, U400, 4 units/actuation
[5] = stage 5, U400, 4 units/actuation
[6] = stage 6, U400, 4 units/actuation
[7] = stage 7, U400, 4 units/actuation
[8] = stage 8, U400, 4 units/actuation

## insulin
[1]
  absorption of insulin through lungs and oropharynx regions: significant absorption
[2]; cascade impactor, most particles
  size of most particles: smaller than 6 microns
[2]; cascade impactor, overall
  particle size (conclusion): about 3 microns
[2]; cascade impactor, indicates deep lung deposition
  droplet size, generally: smaller than 4 microns
[2]; stage 3, 2 units/actuation
  mg (insulin deposited): 0.77 mg
  units (insulin deposited): 10.1 units
[2]; [3]
  mg (insulin deposited): 0.77 mg
  units (insulin deposited): 20.1 units
[2]; stage 4, 2 units/actuation
  mg (insulin deposited): 0.78 mg
  units (insulin deposited): 10.1 units
[2]; [4]
  mg (insulin deposited): 0.78 mg
  units (insulin deposited): 20.1 units
[2]; stage 5, 2 units/actuation
  mg (insulin deposited): 0.81 mg
  units (insulin deposited): 10.0 units
[2]; [5]
  mg (insulin deposited): 0.81 mg
  units (insulin deposited): 20.0 units
[2]; stage 6, 2 units/actuation
  mg (insulin deposited): 0.80 mg
  units (insulin deposited): 10.3 units
[2]; [6]
  mg (insulin deposited): 0.80 mg
  units (insulin deposited): 20.3 units
[2]; stage 7, 2 units/actuation
  mg (insulin deposited): 0.80 mg
  units (insulin deposited): 10.1 units
[2]; [7]
  mg (insulin deposited): 0.80 mg
  units (insulin deposited): 20.1 units
[2]; stage 8, 2 units/actuation
  mg (insulin deposited): 0.79 mg
  units (insulin deposited): 10.1 units
[2]; [8]
  mg (insulin deposited): 0.79 mg
  units (insulin deposited): 20.1 units
[2]; stages 0-2
  insulin deposition: no insulin deposition
